What was measured:
[1] = Rhodamine lipase assay with crude plant leaf extracts; assay type: biochemical; conditions: 0.025 ml droplets (crude leaf extract or 20 U porcine lipase); 30 C overnight
Text: For transient expression assays of bovine PGE, the plant transformation and expression vectors constructed in Example 12 were moved into A. tumefaciens strain GV2260 by either electroporation or bacterial conjugation as described (Kapila et al., 1997). GV2260 carrying pIPG745 or pIPG746 was used for transient expression in tobacco, pepper, tomato, citrus, geranium, and rice plants as described (Kapila et al. 1997; Duan et al., 1999; Wroblewski et al. 2005). Cultures of Agrobacterium harboring the constructs of interest were grown in minimal medium in the presence of acetosyringone to induce the Agrobacterium vir genes. The optical density of the cultures was maintained at 0.008 for pepper and tomato and at 0.25 for citrus, geranium and rice. Strain GV2260 was flooded into healthy, young, fully expanded leaves of vigorous plants into the apoplastic space through open stomata by injection using a tuberculin syringe without a needle, flooding entire leaves. […]
Two lipase/esterase activity assays were used. […] Lower intensity fluorescence was also observed from the empty vector controls. In order to quantify the difference, 0.2 ml of the rhodamine olive oil suspension was mixed with 0.1 ml of plant extract and allowed to incubate at 30 C for 24 hrs. Fluorescence was measured using a Tecan Spectraluor Plus spectrofluorimeter (excitation=360 nm; emission=535 nm).

[2] = Phenol red lipase/esterase assay with crude plant leaf extracts; assay type: biochemical
Text: In this Figure, the first tube on the left (labeled “Buffer”) contains phenol red buffer and Tween 20 (the dark red color appears dark in this black and white figure); the second tube to the right (“SL”) has 4 Units of Sigma porcine pancreatic lipase added (the bright yellow color appears light); the third tube to the right (labeled “731”) has a twenty microliter droplet of a crude tomato plant leaf extract from leaves inoculated 4 days earlier with GV2260 carrying “empty” (ie., no lipase gene) expression vector pIPG731 (the dark red color appears dark), and the fourth tube to the right (“768 WI”) has a twenty microliter droplet of crude tomato plant leaf extract from leaves inoculated four days earlier with GV2260 carrying cloned bovine pregastric esterase expressed in pIPG768 (the bright yellow color appears light). Tomato leaf tissue particles may be seen floating in the third and fourth tubes to the right. […] The photo was taken 16 hrs. after start of the assay.
For transient expression assays of bovine PGE, the plant transformation and expression vectors constructed in Example 12 were moved into A. tumefaciens strain GV2260 by either electroporation or bacterial conjugation as described (Kapila et al., 1997). GV2260 carrying pIPG745 or pIPG746 was used for transient expression in tobacco, pepper, tomato, citrus, geranium, and rice plants as described (Kapila et al. 1997; Duan et al., 1999; Wroblewski et al. 2005). Cultures of Agrobacterium harboring the constructs of interest were grown in minimal medium in the presence of acetosyringone to induce the Agrobacterium vir genes. The optical density of the cultures was maintained at 0.008 for pepper and tomato and at 0.25 for citrus, geranium and rice. Strain GV2260 was flooded into healthy, young, fully expanded leaves of vigorous plants into the apoplastic space through open stomata by injection using a tuberculin syringe without a needle, flooding entire leaves. After 3-4 days, two grams of leaf tissue (fresh weight), was ground in liquid nitrogen to a fine powder, and 0.5 ml of ice cold phosphate buffered saline (PBS; 137 mM NaCl, 2.7 mM KCl, 10 mM potassium phosphate, pH 7.4) was added and mixed thoroughly at 4 C. The mixture was mixed on an orbital shaker at 4 C for 30 minutes, and plant debris was pelleted at 10,000×g for 15 minutes and discarded. The supernatants from these crude plant leaf extracts were directly used in lipase/esterase assays.
The second activity assay was a phenol red lipase/esterase assay using tributyrin, olive oil or Tween 20 as substrates as described by Singh et al. (2006), except that liquid medium, rather than solidified agar medium, was used. Twenty microliter droplets of crude plant leaf extracts and the positive control were placed in the tributyrin/phenol red medium containing tributyrin, olive oil or Tween 20 and incubated at 30 C overnight. […] Transient expression of bovine PGE was confirmed in tobacco, pepper, tomato, citrus, geranium, and rice plants.
For transient expression assays, the plant transformation and expression vectors constructed in Example 15 were moved into A. tumefaciens strain GV2260 by electroporation. GV2260 carrying pIPG823 was used for transient expression in tobacco and geranium plants exactly as described in Example 20. The supernatants from crude plant leaf extracts were directly used in phenol red lipase/esterase assays using tributyrin and olive oil as substrates exactly as described in Example 20.

Fluorescence on rhodamine olive oil agar plates [1]: Bright fluorescent spots
Phenol red indicator tube color (FIG. 2) ([2]; Tween 20 substrate, 16 hrs after start, tomato leaf extract or 4 Units lipase): bright yellow
Phenol red indicator color change ([2]; substrates tributyrin and olive oil, extracts of tobacco and geranium leaves, nematode esterase construct): color change from red to bright yellow
Phenol red indicator color change ([2]; substrates tributyrin, olive oil or Tween 20, twenty microliter droplets, 30 C overnight, bovine PGE constructs): color change from red to bright yellow
B1: porcine lipase: Commercial porcine pancreatic lipase, positive control of the lipase/esterase assays (protein, UniProt P00591 1-450, looked up)
Pancreatic triacylglycerol …: SEVCFPRLGCFSDDAPWAGIVQRPLKILPWSPKDVDTRFLLYTNQNQNNYQELVADPSTITNSNFRMDRKTRFIIHGFIDKGEEDWLSNICKNLFKVESVNCICVDWKGGSRTGYTQASQNIRIVGAEVAYFVEVLKSSLGYSPSNVHVIGHSLGSHAAGEAGRRTNGTIERITGLDPAEPCFQGTPELVRLDPSDAKFVDVIHTDAAPIIPNLGFGMSQTVGHLDFFPNGGKQMPGCQKNILSQIVDIDGIWEGTRDFVACNHLRSYKYYADSILNPDGFAGFPCDSYNVFTANKCFPCPSEGCPQMGHYADRFPGKTNGVSQVFYLNTGDASNFARWRYKVSVTLSGKKVTGHILVSLFGNEGNSRQYEIYKGTLQPDNTHSDEFDSDVEVGDLQKVKFIWYNNNVINPTLPRVGASKITVERNDGKVYDFCSQETVREEVLLTLNPC
Substrates utilized in phenol red lipase/esterase assay ([2]; transiently plant-expressed enzyme or positive control): utilized all three substrates: tributyrin, olive oil and Tween 20
